The labels stand for the following.
T1: HuCDCP1-B (human, UniProt Q9H5V8 343-667)
T1 construct: range 343-667; expressed in HEK-293T, purified by Fc/his tag; also called human CDCP1-B; membrane-proximal region of CDCP1; not shown: Fc or his tag
T1 sequence (looked up): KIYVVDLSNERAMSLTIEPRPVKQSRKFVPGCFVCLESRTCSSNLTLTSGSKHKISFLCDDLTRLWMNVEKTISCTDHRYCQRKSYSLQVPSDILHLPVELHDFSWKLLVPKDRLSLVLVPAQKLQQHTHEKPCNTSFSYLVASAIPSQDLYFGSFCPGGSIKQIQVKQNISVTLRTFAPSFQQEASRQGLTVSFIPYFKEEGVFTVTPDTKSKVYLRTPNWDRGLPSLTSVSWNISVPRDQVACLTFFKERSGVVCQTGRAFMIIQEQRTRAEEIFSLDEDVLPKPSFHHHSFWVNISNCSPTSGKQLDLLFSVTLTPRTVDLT

T2: HuCDCP1-A (human, UniProt Q9H5V8 30-430)
T2 construct: range 30-430; expressed in HEK-293T, purified by Fc/his tag; also called human CDCP1-A; membrane-distal region of CDCP1; not shown: Fc or his tag
T2 sequence (looked up): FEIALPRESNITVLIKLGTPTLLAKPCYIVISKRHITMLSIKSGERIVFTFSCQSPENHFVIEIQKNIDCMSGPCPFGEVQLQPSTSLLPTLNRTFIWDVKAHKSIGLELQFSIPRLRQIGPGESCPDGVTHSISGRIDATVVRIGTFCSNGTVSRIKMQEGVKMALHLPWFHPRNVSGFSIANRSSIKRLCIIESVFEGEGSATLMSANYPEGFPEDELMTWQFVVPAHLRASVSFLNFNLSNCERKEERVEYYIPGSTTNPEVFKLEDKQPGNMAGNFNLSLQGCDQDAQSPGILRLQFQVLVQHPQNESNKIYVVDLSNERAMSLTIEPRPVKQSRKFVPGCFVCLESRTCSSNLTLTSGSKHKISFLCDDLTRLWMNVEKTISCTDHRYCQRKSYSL

T3: CynoCDCP1 (Macaca fascicularis, UniProt A0A2K5VLA8 30-667)
T3 construct: extracellular domain; also called Macaca fascicularis CDCP1; monkey CDCP1; not shown: Fc or his tag
T3 sequence: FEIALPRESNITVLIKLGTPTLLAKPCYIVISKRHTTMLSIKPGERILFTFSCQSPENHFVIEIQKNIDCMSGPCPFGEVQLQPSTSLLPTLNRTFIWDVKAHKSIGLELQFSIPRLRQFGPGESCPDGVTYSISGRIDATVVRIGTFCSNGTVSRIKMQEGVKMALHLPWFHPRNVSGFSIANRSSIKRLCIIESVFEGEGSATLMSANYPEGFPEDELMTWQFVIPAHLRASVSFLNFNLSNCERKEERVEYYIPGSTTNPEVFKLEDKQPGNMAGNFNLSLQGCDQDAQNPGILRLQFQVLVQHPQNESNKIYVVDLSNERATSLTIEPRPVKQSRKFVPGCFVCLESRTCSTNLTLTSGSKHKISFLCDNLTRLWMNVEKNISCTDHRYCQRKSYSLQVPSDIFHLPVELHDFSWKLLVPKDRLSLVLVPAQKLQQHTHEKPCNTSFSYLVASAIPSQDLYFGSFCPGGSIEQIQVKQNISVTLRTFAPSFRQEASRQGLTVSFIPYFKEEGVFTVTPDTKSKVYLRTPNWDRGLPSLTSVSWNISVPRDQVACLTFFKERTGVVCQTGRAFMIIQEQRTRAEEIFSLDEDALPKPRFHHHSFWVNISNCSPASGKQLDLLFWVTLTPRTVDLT

B1: 1CP-124 (antibody, human IgG1, kappa, V domains shown)
VH: QVQLVQSGAEVKKPGASVKVSCKASGYNFISYWLHWVRQAPGQGLEWMGGIYPGNTDTTYNQKFKGRVTMTRDTSTSTVYMELSSLRSEDTAVYYCIRYDYDRGMDYWGQGTLVTVSS
VL: DIQMTQSPSSLSASVGDRVTITCRASEDIYYRLAWYQQKPGKAPKLLISGATALETGVPSRFSGSGSGKDYTFTISSLQPEDIATYYCQHYWNIPWTFGQGTKVEIKR
notes: humanized 3C11, human IgG1 kappa
B2: 1CP-129 (antibody, human IgG1, kappa, V domains shown)
VH: B1 VH with R72A
VL: B1 VL with F73L
notes: as for B1
B3: 1CP-128 (antibody, human IgG1, kappa, V domains shown)
VH: B1 VH
VL: B1 VL with F73L
notes: as for B1
B4: 1CP-125 (antibody, human IgG1, kappa, V domains shown)
VH: B1 VH with R72A
VL: B1 VL
notes: as for B1
B5: 1CP-117 (antibody, human IgG1, kappa, V domains shown)
VH: QVQLVQSGSELKKPGASVKVSCKASGYTLTDFSMHWVRQAPGQGLEWMGWINTETGAPTYADDFKGRFVLSLDTSVSTAYLQISSLKAEDTAVYYCSRGRDYDPHFDYWGQGTLVTVSS
VL: EIVLTQSPATLSLSPGERATLSCRASQSISDFLHWYQQKPGQSPRLLIKYASQSISGIPARFSGSGSGSDFTLTISSVEPEDFAVYYCQSAHSFPYTFGQGTKLEIKR
notes: humanized 8E5, human IgG1 kappa
B6: 1CP-121 (antibody, human IgG1, kappa, V domains shown)
VH: B5 VH
VL: B5 VL with P40S
notes: as for B5
B7: 1CP-152 (antibody, human IgG1, kappa, V domains shown)
VH: EVQLVESGGGLVQPGRSLRLSCTTSGLTFTHYHMSWVRQAPGKGLEWVAIIRNKAYGYTTDYSASVRGRFTISRDDSKSILYLQMNSLKTEDTAVYYCVREGGYGYDGTFAYWGQGTLVTVSS
VL: DIQMTQSPSSLSASVGDRVTITCRASESVDNYGISFMNWFQQKPGQAPKLLIYAASNQGSGVPSRFSGSGSGTDFTLTISSMQPEDFATYYCQQSKEVPRTFGGGTKVEIKR
notes: humanized 8C9, human IgG1 kappa
B8: 1CP-157 (antibody, human IgG1, kappa, V domains shown)
VH: B7 VH with L45P
VL: B7 VL with A47P
notes: as for B7

Where a chain is given by its changes, count along the chain named.

For the first test, the target named is T1, HuCDCP1-B. Nature of the test: SPR (Caterra), antigen immobilized. As to the method:
(§1) The humanized anti-CDCP1 antibodies obtained from Example 11 were subjected to gene cloning, constructed into pTT5 expression vector for a small amount of expression in CHO cells (Expi-CHOS: Gibco A29127), and purified with an Fc affinity column (AT Protein A Diamond Plus. No. AA402312). Antibody purity was analyzed by HPLC and determined by Nanodrop. High-throughput affinity assay was carried out for a small amount of antibodies by Caterra.
(§2) Further, Partial anti-CDCP1 humanized antibodies were selected for expression, and then the affinity of the antibodies to the antigens Hu-CDCP1-A, Hu-CDCP1-B, Cyno-CDCP1, and Ms-CDCP1 was detected according to the above affinity detection method.
One may read the Kd as the free concentration of one partner at which half of the binding sites on the other are occupied at equilibrium, for simple one-to-one binding. The low end stands for a tighter complex, the high end for a looser complex. Molecule B1 registered a Kd of 100 nM.
Same read-out and setting: then B2, with 157 nM; and B3, with 109 nM; and B4, with 55.1 nM.
B5: the Kd was 182 nM. This Kd lies about 3.3-fold higher than the previous one.
The same measure, in the same setting: the result for B6 reads 131 nM.
On the same count and under the same terms, the result for B7 reads 110 nM; that for B8, 359 nM.

For another test, the target named is T2, HuCDCP1-A. Description: SPR (Caterra), antigen immobilized. As to the method: as §1, §2
Take B1: the Kd turned out to be 132 nM.
Same read-out and setting: the result for B2 reads 126 nM; that for B3, 76 nM; that for B4, 559 nM.
Same read-out and setting: the result for B5 reads 76.5 nM; that for B6, 99.8 nM; that for B7, 105 nM.
With B8, the affinity, expressed as Kd, was 226 nM.

The next test addresses T3, CynoCDCP1. Description: SPR (Caterra), antigen immobilized. As to the method:
as §1, §2
Molecule B1 came in with a Kd of 24.2 nM.
On the same count and under the same terms, the result for B2 reads 53.8 nM; that for B3, 47.5 nM; that for B4, 2.27 nM.
Same read-out and setting: the result for B5 reads 1.84 nM; that for B6, 1.51 nM; that for B7, 2.9 nM.
Molecule B8 gave a Kd of 2.6 nM.

(Values after patent US20260250410A1 (SICHUAN HUIYU PHARMACEUTICAL, published 2026).)
